The source of these data is patent US20160039947A1 (Eli Lilly, published 2016).

The target of assay [1] is T1, hHER-2-Fc (human, UniProt P04626 23-652).
T1 construct: Coated unlabelled in the sandwich ELISA; biotinylated and captured on an SA chip in the SPR assay; also called human HER-2-Fc; hHER-2-Fc-biotin; not shown: Fc part of the bought fusion protein
The assay is described as follows: sandwich ELISA: hHER-2-Fc coated, BsAb, hEGFR-Fc-biotin detection. As for the experimental part:
(§1) Two sandwich ELISAs are developed, one for detecting anti-HER-2/anti-EGFR BsAb activity and one for detecting anti-cMET/anti-Axl BsAb activity. For both ELISAs, clear 96-well round bottom high binding Immulon microtiter plates (Greiner bio-one, cat#650061) are coated overnight at 2-8° C. with 50 μL/well 1 μg/mL hHER-2-Fc or 1 μg/mL hHGFR(cMet)-Fc (both from R&D systems) in a 50 mM Na₂CO₃ pH 8 buffer. The plates are washed 4 times with PB ST and blocked with 100 μL/well casein buffer (Pierce) for 1 hr at 37° C. The plates are then washed 4 times with PBST and the parental IgG controls or BsAb IgG test articles are added at 50 μL/well and 5 μg/mL and serially diluted 1:3 down the plate. The test articles are incubated on the plate for 1 hr at 37° C. The plates are then washed 4 times with PBST and 50 μL/well 0.2 μg/mL hEGFR-Fc-biotin or hAxl-Fc-biotin (both from R&D systems) is added for 1 hr at 37° C. The plates are then washed 4 times with PBST followed by the addition of a 50 μL/well streptavidin-HRP (Jackson Labs) diluted 1:2000 in PBST. The streptavidin-HRP is incubated in each well for 1 hr at 37° C. The plates are then washed 4 times with PBST and 100 μL/well 1-component TMB substrate is added (KPL laboratories). After approximately 10 minutes, 100 mL/well 1% H₃PO₄ (in H₂O) is added to each plate to quench the reaction. Absorbance (450 nm) of every well in the plates is read using a SpectraMax UV plate reader (Molecular Devices). Biotin-labeling of the hEGFR-Fc and hAxl-Fc proteins is performed using EZ-Link Sulfo-NHS-LC-Biotin (Thermo Scientific) according to the manufacturer's protocol.
On the technique in general: An ELISA detects its analyte on a solid surface through an enzyme-linked reagent.

For assay [2], the target named is T2, hEGFR-Fc (human, UniProt P00533 25-645).
T2 construct: Biotin-labelled (EZ-Link Sulfo-NHS-LC-Biotin) as detection reagent in the ELISA; unlabelled second injection in SPR; also called hEGFR-Fc-biotin; not shown: Fc part of the bought fusion protein
The assay is described as above. As for the experimental part:
as §1

The target in assay [3] is T1, hHER-2-Fc. The assay is described as follows: sandwich ELISA: hHER-2-Fc coated, IgG, hEGFR-Fc-biotin detection. As for the experimental part: as §1, with “After approximately 10 minutes, 100 mL/well 1% H₃PO₄ (in H₂O) is added to each plate to quench the reaction.” left out, “Biotin-labeling of the hEGFR-Fc and hAxl-Fc proteins is performed using EZ-Link Sulfo-NHS-LC-Biotin (Thermo Scientific) according to the manufacturer's protocol.” left out

Assay [4] concerns the target T3, hHGFR(cMet)-Fc (human, UniProt P08581 25-932).
T3 construct: Coated in the sandwich ELISA; second injection in SPR; not shown: Fc part of the bought fusion protein
The assay is described as follows: sandwich ELISA: hHGFR(cMet)-Fc coated, IgG, hAxl-Fc-biotin detection. As for the experimental part: as §1, with “After approximately 10 minutes, 100 mL/well 1% H₃PO₄ (in H₂O) is added to each plate to quench the reaction.” left out, “Biotin-labeling of the hEGFR-Fc and hAxl-Fc proteins is performed using EZ-Link Sulfo-NHS-LC-Biotin (Thermo Scientific) according to the manufacturer's protocol.” left out

For assay [5], the target named is T3, hHGFR(cMet)-Fc. Nature of the assay: sandwich ELISA: hHGFR(cMet)-Fc coated, BsAb, hAxl-Fc-biotin detection. As for the experimental part: as §1

Where a chain is given by its changes, count along the chain named.

T3 sequence (P08581 25-932): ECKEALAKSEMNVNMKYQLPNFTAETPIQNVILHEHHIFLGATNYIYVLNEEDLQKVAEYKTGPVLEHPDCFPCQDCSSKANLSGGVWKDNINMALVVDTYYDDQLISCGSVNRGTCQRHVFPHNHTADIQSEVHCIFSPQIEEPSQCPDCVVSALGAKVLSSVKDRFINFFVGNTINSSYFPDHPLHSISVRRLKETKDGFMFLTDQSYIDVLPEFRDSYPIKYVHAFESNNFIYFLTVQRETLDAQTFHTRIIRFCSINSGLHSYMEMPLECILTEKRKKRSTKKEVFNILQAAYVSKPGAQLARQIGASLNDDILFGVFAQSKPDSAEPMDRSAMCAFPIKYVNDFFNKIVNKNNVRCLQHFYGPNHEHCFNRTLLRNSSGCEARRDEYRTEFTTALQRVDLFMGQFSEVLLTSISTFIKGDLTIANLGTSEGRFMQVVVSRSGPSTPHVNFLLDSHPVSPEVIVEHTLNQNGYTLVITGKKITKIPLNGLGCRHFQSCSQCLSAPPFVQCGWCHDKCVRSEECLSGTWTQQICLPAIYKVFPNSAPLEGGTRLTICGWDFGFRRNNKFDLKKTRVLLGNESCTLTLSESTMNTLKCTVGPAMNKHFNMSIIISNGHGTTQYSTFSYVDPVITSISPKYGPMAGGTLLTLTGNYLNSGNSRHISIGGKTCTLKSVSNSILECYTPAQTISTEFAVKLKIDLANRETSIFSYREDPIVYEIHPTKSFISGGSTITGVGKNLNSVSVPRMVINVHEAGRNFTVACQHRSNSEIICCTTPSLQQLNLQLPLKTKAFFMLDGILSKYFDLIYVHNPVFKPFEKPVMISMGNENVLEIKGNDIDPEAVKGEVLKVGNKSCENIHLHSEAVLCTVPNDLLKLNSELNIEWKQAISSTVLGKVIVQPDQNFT

B1: HEDesign λλ (anti-HER-2/anti-EGFR IgG BsAb with Fab redesigns) (bispecific antibody)
heavy 1: EVQLVESGGGLVQPGGSLRLSCAASGFTFTDYTMDWVRKAPGKGLEWVADVNPNSGGSIYNQEFKGRFTLSVDRSKNTLYLQMNSLRAEDTAVYYCARNLGPSFYFDYWGQGTLVTVSSASTKGPSVFPLAPSSKSTSGGTAALGCLVKDYFPEPVTVSWNSGALTSGVATGPAVLQSSGLYSLSSVVTVPSSSLGTQTYICNVNHKPSNTKVDKKVEPKSCDKTHTCPPCPAPELLGGPSVFLFPPKPKDTLMISRTPEVTCVVVDVSHEDPEVKFNWYVDGVEVHNAKTKPREEQYQSTYRVVSVLTVLHQDWLNGKEYKCKVSNKALPAPIEKTISKAKGQPREPQVYTLPPSRDELTKNQVSLTCLVKGFYPSDIAVEWESNGQPENNYDTTPPVLDSDGSFFLYSDLTVDKSRWQQGNVFSCSVMHEALHNHYTQKSLSLSPG
light 1: RIQMTQSPSSLSASVGDRVTITCKASQDVSIGVAWYQDKPGKAPKLLIYSASYRYTGVPSRFSGSGSGTDFTLTISSLQPEDFATYYCQQYYIYPYTFGQGTKVEIKGQPKAAPSVTLFPPSSEELQANKATLVCYISDFYPGAVTVAWKADSSPVKAGVETTTPSKQSNNKYAAWSYLSLTPEQWKSHRSYSCQVTHEGSTVEKTVAPTEC
heavy 2: QVQLVQSGAEVKKPGASVKVSCKASGYTFTSHWMHWVRYAPGQGLEWIGEFNPSNGRTNYNEKFKSKATMTVDTSTNTAYMELSSLRSEDTAVYYCASRDYDYDGRYFDYWGQGTLVTVSSASTKGPSVFPLAPSSKSTSGGTAALGCLVKDYFPEPVTVSWNSGALTSGVHTFPAVLQSSGLYSLSSVVTVPSSSLGTQTYICNVNHKPSNTKVDKKVEPKSCDKTHTCPPCPAPELLGGPSVFLFPPKPKDTLMISRTPEVTCVVVDVSHEDPEVKFNWYVDGVEVHNAKTKPREEQYQSTYRVVSVLTVLHQDWLNGKEYKCKVSNKALPAPIEKTISKAKGQPREPQVYTLPPSRKELTKNQVSLTCLVKGFYPSDIAVEWESNGQPENNYKTTPPVLKSDGSFFLYSKLTVDKSRWQQGNVFSCSVMHEALHNHYTQKSLSLSPG
light 2: DIQMTQSPSSLSASVGDRVTITCSASSSVTYMYWYQRKPGKAPKLLIYDTSNLASGVPSRFSGSGSGTDYTFTISSLQPEDIATYYCQQWSSHIFTFGQGTKVEIKGQPKAAPSVTLFPPSSEELQANKATLVCLISDFYPGAVTVAWKADSSPVKAGVETTTPSKQSNNKYAASSYLSLTPEQWKSHRSYSCQVTHEGSTVEKTVAPTEC
notes: also called HE Designs
For the molecule B1, the binding result in assay [1] and in assay [2] was “binds” each time.

B2: HEDesign κλ (anti-HER-2/anti-EGFR IgG BsAb with Fab redesigns) (bispecific antibody)
heavy 1: B1 heavy 1
light 1: RIQMTQSPSSLSASVGDRVTITCKASQDVSIGVAWYQDKPGKAPKLLIYSASYRYTGVPSRFSGSGSGTDFTLTISSLQPEDFATYYCQQYYIYPYTFGQGTKVEIKRTVAAPSVFIFPPSDEQLKSGTASVVCYLNNFYPREAKVQWKVDNALQSGNSQESVTEQDSKDSTYSLWSTLTLSKADYEKHKVYACEVTHQGLSSPVTKSFNRGEC
heavy 2: B1 heavy 2
light 2: B1 light 2
notes: also called HE Designs
B2: the binding result in assay [1] and in assay [2] was “binds” throughout.

B3: HEDesign λκ (anti-HER-2/anti-EGFR IgG BsAb with Fab redesigns) (bispecific antibody)
heavy 1: B1 heavy 1
light 1: B1 light 1
heavy 2: B1 heavy 2
light 2: DIQMTQSPSSLSASVGDRVTITCSASSSVTYMYWYQRKPGKAPKLLIYDTSNLASGVPSRFSGSGSGTDYTFTISSLQPEDIATYYCQQWSSHIFTFGQGTKVEIKRTVAAPSVFIFPPSDEQLKSGTASVVCLLNNFYPREAKVQWKVDNALQSGNSQESVTEQDSKDSTYSLSSTLTLSKADYEKHKVYACEVTHQGLSSPVTKSFNRGEC
notes: also called HE Designs
Regarding B3, the binding result in assay [1] and in assay [2] was “binds” each time.

B4: matuzumab IgG1 (mG1) (antibody, V domains shown)
VH: QVQLVQSGAEVKKPGASVKVSCKASGYTFTSHWMHWVRQAPGQGLEWIGEFNPSNGRTNYNEKFKSKATMTVDTSTNTAYMELSSLRSEDTAVYYCASRDYDYDGRYFDYWGQGTLVTVSS
VL: DIQMTQSPSSLSASVGDRVTITCSASSSVTYMYWYQQKPGKAPKLLIYDTSNLASGVPSRFSGSGSGTDYTFTISSLQPEDIATYYCQQWSSHIFTFGQGTKVEIKG
notes: also called matuzumab (anti-EGFR) control IgG
Turning to B4, the binding result in assay [3] is given as “no binding (tested: 5 µg/mL, serially diluted 1:3)”.

B5: Anti-Axl IgG1 (AxlG1) (antibody, V domains shown)
VH: EVQLVESGGGLVQPGGSLRLSCAASGFSLSGSWIHWVRQAPGKGLEWVGWINPYRGYAYYADSVKGRFTISADTSKNTAYLQMNSLRAEDTAVYYCAREYSGWGGSSVGYAMDYWGQGTLVTVSS
VL: DIQMTQSPSSLSASVGDRVTITCRASQDVSTAVAWYQQKPGKAPKLLIYSASFLYSGVPSRFSGSGSGTDFTLTISSLQPEDFATYYCQQSYTTPPTFGQGTKVEIKG
notes: also called anti-Axl antibody YW327.6S2 control IgG
For B5, in assay [4], the binding result is on record as “no binding (tested: 5 µg/mL, serially diluted 1:3)”.

B6: MAControl λκ (anti-cMET/anti-Axl IgG BsAb without Fab redesigns) (bispecific antibody)
heavy 1: EVQLVESGGGLVQPGGSLRLSCAASGYTFTSYWLHWVRQAPGKGLEWVGMIDPSNSDTRFNPNFKDRFTISADTSKNTAYLQMNSLRAEDTAVYYCATYRSYVTPLDYWGQGTLVTVSSASTKGPSVFPLAPSSKSTSGGTAALGCLVKDYFPEPVTVSWNSGALTSGVHTFPAVLQSSGLYSLSSVVTVPSSSLGTQTYICNVNHKPSNTKVDKKVEPKSCDKTHTCPPCPAPELLGGPSVFLFPPKPKDTLMISRTPEVTCVVVDVSHEDPEVKFNWYVDGVEVHNAKTKPREEQYQSTYRVVSVLTVLHQDWLNGKEYKCKVSNKALPAPIEKTISKAKGQPREPQVYTLPPSRDELTKNQVSLTCLVKGFYPSDIAVEWESNGQPENNYDTTPPVLDSDGSFFLYSDLTVDKSRWQQGNVFSCSVMHEALHNHYTQKSLSLSPG
light 1: DIQMTQSPSSLSASVGDRVTITCKSSQSLLYTSSQKNYLAWYQQKPGKAPKLLIYWASTRESGVPSRFSGSGSGTDFTLTISSLQPEDFATYYCQQYYAYPWTFGQGTKVEIKGQPKAAPSVTLFPPSSEELQANKATLVCLISDFYPGAVTVAWKADSSPVKAGVETTTPSKQSNNKYAASSYLSLTPEQWKSHRSYSCQVTHEGSTVEKTVAPTEC
heavy 2: EVQLVESGGGLVQPGGSLRLSCAASGFSLSGSWIHWVRQAPGKGLEWVGWINPYRGYAYYADSVKGRFTISADTSKNTAYLQMNSLRAEDTAVYYCAREYSGWGGSSVGYAMDYWGQGTLVTVSSASTKGPSVFPLAPSSKSTSGGTAALGCLVKDYFPEPVTVSWNSGALTSGVHTFPAVLQSSGLYSLSSVVTVPSSSLGTQTYICNVNHKPSNTKVDKKVEPKSCDKTHTCPPCPAPELLGGPSVFLFPPKPKDTLMISRTPEVTCVVVDVSHEDPEVKFNWYVDGVEVHNAKTKPREEQYQSTYRVVSVLTVLHQDWLNGKEYKCKVSNKALPAPIEKTISKAKGQPREPQVYTLPPSRKELTKNQVSLTCLVKGFYPSDIAVEWESNGQPENNYKTTPPVLKSDGSFFLYSKLTVDKSRWQQGNVFSCSVMHEALHNHYTQKSLSLSPG
light 2: DIQMTQSPSSLSASVGDRVTITCRASQDVSTAVAWYQQKPGKAPKLLIYSASFLYSGVPSRFSGSGSGTDFTLTISSLQPEDFATYYCQQSYTTPPTFGQGTKVEIKRTVAAPSVFIFPPSDEQLKSGTASVVCLLNNFYPREAKVQWKVDNALQSGNSQESVTEQDSKDSTYSLSSTLTLSKADYEKHKVYACEVTHQGLSSPVTKSFNRGEC
For the molecule B6, the binding result in assay [5] was “binds”.

B7: MADesign κλ (anti-cMET/anti-Axl IgG BsAb with Fab redesigns) (bispecific antibody)
heavy 1: B6 heavy 1 with Q39K, N63E, H170A, F172G
light 1: RIQMTQSPSSLSASVGDRVTITCKSSQSLLYTSSQKNYLAWYQDKPGKAPKLLIYWASTRESGVPSRFSGSGSGTDFTLTISSLQPEDFATYYCQQYYAYPWTFGQGTKVEIKRTVAAPSVFIFPPSDEQLKSGTASVVCYLNNFYPREAKVQWKVDNALQSGNSQESVTEQDSKDSTYSLWSTLTLSKADYEKHKVYACEVTHQGLSSPVTKSFNRGEC
heavy 2: B6 heavy 2 with Q39Y
light 2: DIQMTQSPSSLSASVGDRVTITCRASQDVSTAVAWYQRKPGKAPKLLIYSASFLYSGVPSRFSGSGSGTDFTLTISSLQPEDFATYYCQQSYTTPPTFGQGTKVEIKGQPKAAPSVTLFPPSSEELQANKATLVCLISDFYPGAVTVAWKADSSPVKAGVETTTPSKQSNNKYAASSYLSLTPEQWKSHRSYSCQVTHEGSTVEKTVAPTEC
notes: also called MA Designs
As to B7, in assay [5], the binding result was “binds”.

B8: MADesign λκ (anti-cMET/anti-Axl IgG BsAb with Fab redesigns) (bispecific antibody)
heavy 1: B6 heavy 1 with Q39K, N63E, H170A, F172G
light 1: B6 light 1 with D1R, Q44D, L142Y, S182W
heavy 2: B6 heavy 2 with Q39Y
light 2: B6 light 2 with Q38R
notes: also called MA Designs
B8: in assay [5], the binding result is given as “binds”.
